Reference: US20040161419A1, “Placental stem cells and uses thereof” (priority 2002, published 2004)

What was measured:
placental stem cells [1] = experiment: Culture in the presence or absence of EGF (growth curve); format: cell-based, human; conditions: EGF 10 ng/ml versus absence of EGF
Experimental: A human placenta was obtained from an uncomplicated elective caesarean section. The whole placenta was placed in a sterilized 1000 ml cup and washed with Hank's Balanced Salt Solution (HBSS) containing penicillin G (100 U/ml), streptomycin (100 μg/ml), and amphotericin B (0.25 μg/ml). The umbilical cord was cut and the whole placenta was cut in half at the point of attachment of the umbilical cord. The amnion layer was peeled from the underlying chorion layer of the placenta by gentle stripping with a sterile scalpel, starting from the cut edge (middle of the placental body) and working outward. The amnion was washed with HBSS (without antibiotics) and rinsed with 0.05% Trypsin-EDTA. 0.05% Trypsin-EDTA was added to approximately twice the volume of the tissue in a 50 cc Falcon tube and incubated at 37° C. for 20 min on shaker in a 5% CO2 incubator. The tissue is transferred to a new tube with 0.05% Trypsin-EDTA. Media was added to remaining supernatant in the tube to stop trypsinization and centrifuged at 800 rpm for 10 min at 4° C. The pellet was resuspended in DMEM, 10% FBS, 1 mM Sodium Pyruvate, EGF (10 ng/ml), penicillin G (100 U/ml), streptomycin (100 μg/ml), and amphotericin B (0.25 μg/ml). The trysinization step was repeated up to a total of 3 times. The cells released by each trypsinization were plated separately or mixed in one tube after passing through a 100 μm cell strainer. […]

placental stem cells [2] = tested on: placental stem cells

B1: EGF: epidermal growth factor, media supplement (protein, UniProt P01133 23-1207, looked up)
Pro-epidermal growth factor: PQHWSCPEGTLAGNGNSTCVGPAPFLIFSHGNSIFRIDTEGTNYEQLVVDAGVSVIMDFHYNEKRIYWVDLERQLLQRVFLNGSRQERVCNIEKNVSGMAINWINEEVIWSNQQEGIITVTDMKGNNSHILLSALKYPANVAVDPVERFIFWSSEVAGSLYRADLDGVGVKALLETSEKITAVSLDVLDKRLFWIQYNREGSNSLICSCDYDGGSVHISKHPTQHNLFAMSLFGDRIFYSTWKMKTIWIANKHTGKDMVRINLHSSFVPLGELKVVHPLAQPKAEDDTWEPEQKLCKLRKGNCSSTVCGQDLQSHLCMCAEGYALSRDRKYCEDVNECAFWNHGCTLGCKNTPGSYYCTCPVGFVLLPDGKRCHQLVSCPRNVSECSHDCVLTSEGPLCFCPEGSVLERDGKTCSGCSSPDNGGCSQLCVPLSPVSWECDCFPGYDLQLDEKSCAASGPQPFLLFANSQDIRHMHFDGTDYGTLLSQQMGMVYALDHDPVENKIYFAHTALKWIERANMDGSQRERLIEEGVDVPEGLAVDWIGRRFYWTDRGKSLIGRSDLNGKRSKIITKENISQPRGIAVHPMAKRLFWTDTGINPRIESSSLQGLGRLVIASSDLIWPSGITIDFLTDKLYWCDAKQSVIEMANLDGSKRRRLTQNDVGHPFAVAVFEDYVWFSDWAMPSVMRVNKRTGKDRVRLQGSMLKPSSLVVVHPLAKPGADPCLYQNGGCEHICKKRLGTAWCSCREGFMKASDGKTCLALDGHQLLAGGEVDLKNQVTPLDILSKTRVSEDNITESQHMLVAEIMVSDQDDCAPVGCSMYARCISEGEDATCQCLKGFAGDGKLCSDIDECEMGVPVCPPASSKCINTEGGYVCRCSEGYQGDGIHCLDIDECQLGEHSCGENASCTNTEGGYTCMCAGRLSEPGLICPDSTPPPHLREDDHHYSVRNSDSECPLSHDGYCLHDGVCMYIEALDKYACNCVVGYIGERCQYRDLKWWELRHAGHGQQQKVIVVAVCVVVLVMLLLLSLWGAHYYRTQKLLSKNPKNPYEESSRDVRSRRPADTEDGMSSCPQPWFVVIKEHQDLKNGGQPVAGEDGQAADGSMQPTSWRQEPQLCGMGTEQGCWIPVSSDKGSCPQVMERSFHMPSYGTQTLEGGVEKPHSLLSANPLWQQRALDPPHQMELTQ
modifications: Pro-epidermal growth factor
notes: epidermal growth factor, media supplement
In the case of B1, the “proliferation of placental stem cells” value (placental stem cells [1]) is reported as “proliferate robustly”, the “proliferation of placental stem cells” value (placental stem cells [1]; listed as Epidermal Growth Factor (EGF)) is reported as “grow significantly better” and the “liver specific gene expression (albumin, CYP3A4, A1AT, C/EBP-alpha)” value (“liver specific gene expression” below) (placental stem cells [2]) is reported as “enhance liver specific gene expression”.

B2: FGF 4: fibroblast growth factor 4, media supplement (protein, UniProt P08620 31-206, looked up)
Fibroblast growth factor 4: APTAPNGTLEAELERRWESLVALSLARLPVAAQPKEAAVQSGAGDYLLGIKRLRRLYCNVGIGFHLQALPDGRIGGAHADTRDSLLELSPVERGVVSIFGVASRFFVAMSSKGKLYGSPFFTDECTFKEILLPNNYNAYESYKYPGMFIALSKNGKTKKGNRVSPTMKVTHFLPRL
In the case of B2, the “liver specific gene expression” value (placental stem cells [2]) is reported as “did not enhance liver specific gene expression”.

B3: FGF 7: fibroblast growth factor 7, media supplement (protein, UniProt P21781 32-194, looked up)
Fibroblast growth factor 7: CNDMTPEQMATNVNCSSPERHTRSYDYMEGGDIRVRRLFCRTQWYLRIDKRGKVKGTQEMKNNYNIMEIRTVAVGIVAIKGVESEFYLAMNKEGKLYAKKECNEDCNFKELILENHYNTYASAKWTHNGGEMFVALNQKGIPVRGKKTKKEQKTAHFLPMAIT
For B3, the “liver specific gene expression” value (placental stem cells [2]) was “did not enhance liver specific gene expression”.
